Source: US20190338034A1 (Genentech, published 2019)

Assays:
[1] = biological target: T1, anti-PDL1 Fab (Fab of anti-PD-L1 antibody atezolizumab); assay: SPR (BIAcore), anti-idiotypic antibody captured by anti-mouse-Fc on CM5 chip, 500 nM anti-PDL1 Fab injected, 25 C, 1:1 Langmuir model
T1 construct: Fab format (Genentech); also called anti-PDL1 antibody Fab
Experimental: (§1) Binding affinities of anti-PDL1 anti-ID antibodies were measured by Surface Plasmon Resonance (SPR) using a BIAcore™-[…] instrument. Anti-idiotypic antibodies were captured by an anti-mouse-Fc antibody coated on CM5 biosensor chips to achieve approximately 200 response units (RU). For kinetics measurements, 500 nM of anti-PDL1 Fab or framework control Fab (YW167B.43) (Genentech, South San Francisco, Calif.) were injected in HBS-P+ buffer (0.1M HEPES, 1.5M NaCl, 0.5% Surfactant P20—GE Life Science) at 25° C. with a flow rate of […]. Association rates (kₐ) and dissociation rates (kd) were calculated using a simple one-to-one Langmuir binding model (BIAcore Evaluation Software version 3.2). The equilibrium dissociation constant (KD) was calculated as the ratio koff/kₒₙ. See also FIG. 3-5.

[2] = biological target: T2, atezolizumab (anti-PD-L1 antibody); assay: immunofixation electrophoresis (Sebia IFE) gel shift, atezolizumab 1500 µg/mL in PBS pre-incubated 2 h with anti-ID antibody
T2 construct: Full IgG/Ig kappa antibody as used in the IFE gel shift assays; also called anti-PDL1 antibody atezolizumab

[3] = biological target: T3, YW167B.43 Negative Control; assay: SPR (BIAcore), anti-ID captured, YW167B.43 negative control Fab injected at 500 nM, 25 °C. The software prints this 1:1 fit under a flat sensorgram with no response.
T3 construct: also called framework control Fab
Experimental: as §1

[4] = biological target: T1, anti-PDL1 Fab (Fab of anti-PD-L1 …); assay: SPR (BIAcore), anti-ID captured by anti-mouse-Fc on a CM5 chip, anti-PDL1 antibody Fab injected at 500 nM, 25 °C, 1:1 binding model
Experimental: as §1

[5] = biological target: T3, YW167B.43 Negative Control; assay: SPR (BIAcore), anti-ID captured, YW167B.43 negative control Fab injected at 500 nM, 25 °C. The software prints this 1:1 fit under a flat sensorgram with no positive response.
Experimental: as §1

| Kd [1] [nM] | koff [1] [s⁻¹] | kon [1] [M⁻¹ s⁻¹] | binding result [2] | Kd [3] [nM] | koff [3] [s⁻¹] | kon [3] [M⁻¹ s⁻¹] | Kd [4] [nM] | koff [4] [s⁻¹] | kon [4] [M⁻¹ s⁻¹] | Kd [5] [nM] | koff [5] [s⁻¹] | kon [5] [M⁻¹ s⁻¹] | Binder |
| --- | --- | --- | --- | --- | --- | --- | --- | --- | --- | --- | --- | --- | --- |
| 16.5 | 0.0045 | 279000 | binds | 31.7 | 1.66 | 5.23e+07 | 17.5 | 0.00648 | 370000 | – | – | – | anti-idiotypic anti-PD-L1 antibody 105D11 (antibody, mouse IgG2a, kappa, V domains shown, Mouse monoclonal from a hybridoma) VH: EVQLVETGGGLVKPGGSLKLSCAASGFAFSSYDMSWVRQTPEKRLEWVAYISSGGGSTYYPDTVKGRFTISRDNAKNTLYLQMSSLKSEDTAMYYCARLVYYDYDDAMDYWGQGTSVTVSS VL: DIVLTQSPAIMSASPGEKVTITCSASSSVSYMHWFQQKPGTSPKLWIYSTSNLASGVPARFSGSGSGTSYSLTISRMEAEDAATYYCQQRSSYPPTFGGGTRLEIKR |
| 2.31 | 0.000977 | 421000 | binds | – | – | – | 2.64 | 0.000949 | 360000 | 127 | 0.000421 | 3310 | anti-idiotypic anti-PD-L1 antibody 48C1 (antibody, mouse IgG2a, kappa, V domains shown, Mouse monoclonal from a hybridoma; also called atezolizumab anti-idiotypic mouse mAB clone 48C1; atezolizumab anti-ID antibody 48C1) VH: EVQLVESGGGLVKPGGSLKLSCAASGFAFSSYDMSWVRQTPEKRLEWVAYISSGGGSTYYPDTVKGRFTISRDNAKNTLYLQMSSLKSEDTAMYYCARTIYYGYDDVMDYWGQGTSVTVSS VL: QIVLTQSPAIMSASPGEKVTITCSASSSVSYMHWFQQKPGTSPKLWIYSTSNLASGVPARFSGSGSGTSYSLTISRMEAEDAATYYCQQRSGYPPTFGGGTKLEIKR |
| 90.7 | 0.00862 | 95000 | binds | 0.222 | 0.000128 | 574000 | 89 | 0.00878 | 98600 | – | – | – | anti-idiotypic anti-PD-L1 antibody 43B5 (antibody, mouse IgG2a, kappa, V domains shown, Mouse monoclonal from a hybridoma) VH: EVQLQQSGPELVKPGASVKISCKASGYSFTDYIMLWVKQSHGKSLEWIGNINPYYGSTSYNLKFKGKATLTVDKSSSTAYMQLNSLTSEDSAVYYCARWGGNYEGWFAYWGQGTLVTVSA VL: DIKMTQSPSSMSVSLGDTVSITCHASQGISSNIGWLQQKPGKSFKGLIYHGTNLEDGVPSRFSGSGSGADYSLTISSLESEDFADYYCVQYAQFPLTFGAGTKLELKR |
